Here are results for one substance from patent US20050118719A1.

This test deals with temperature sensitive C1 repressor polypeptide from thermoinducible bacteriophage P1Cm carrying the c1.100 mutation (bacteriophage P1). Put plainly: cell-based or functional assay.

For “Coi polypeptide (C1 inactivator polypeptide) from bacteriophage P1”, the Basal activity (31° C.), Miller units; β-Gal from Op72lacZcoi reporter in K. pneumoniae is 36.4 Miller units; the Fold-induction; β-Gal from Op72lacZcoi reporter in K. pneumoniae turned out to be 19 fold; the Induced activity (42° C.), Miller units; β-Gal from Op72lacZcoi reporter in K. pneumoniae was found to be 698 Miller units.
